Results from patent US20100330094A1 (NOVIMMUNE S A, published 2010).
Changes are numbered by the printed parent chain.

T1: recombinant human IP-10 (hIP-10) (human, UniProt P02778 22-98)
T1 sequence (looked up): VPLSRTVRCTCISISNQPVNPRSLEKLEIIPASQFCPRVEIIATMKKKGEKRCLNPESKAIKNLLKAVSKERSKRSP

B1: CC21R3P1_H6, IgG1 format (antibody, V domains shown)
VH: QVQLVESGGGVAQSGKSLRLSCAASGFTFSNYGMHWVRQAPGKGLEWLAVISYDGSNRYYADSVKGRFTISRDNSNNTLNLQMSSLRAEDTALYYCAKDAGGPLDYWGKGTLVTVSS
VL: VLTQLTQPPSVSLAPGQTATITCGGDNIGRKSVHWYQQKPGQAPVLVVYDDTDRPSGIPERFSGSNSGNTATLTISRVEAGDEADYYCQVWDSSIDHSWVFGGGTKLTVL
B2: CB21R3P3_E5, IgG1 format (antibody, V domains shown)
VH: QVQLVESGGGVVQPGRSLRLSCAASGFTFSSYGMHWVRQAPGKGLEWVAVISYDGSIKYYADSVKGRFTISRDNSKNTLYLQMNSLRAEDAAVYYCARAPDGHQLDYWGRGTLVTVSS
VL: NFMLTQPHSVSESPGKTVTISCTGSSGSIASNYVQWYQQRPGSAPTTVIYEDDQRPSDVPDRFSGSIDSSSNSASLTISGLRTEDEADYYCQSYVSSKWVFGGGTKLTVL
B3: CC21R3P1_F1, scFv format (scFv)
chain: QVQLVESGGGVVQPGRSHTLSCAASGFAFKNSGIHWVRQAPGKGLEWVAVISYDGSNKFYADSVKGRFTISRDNSQNTVYLQMTDLRPDDTAVYYCARDGSESEYLDYWGKGTLVTVSSNFMLTQPHSVSESPGKTVTISCTGSGGSIDRNYVQWYQQRPGSAPITVIYEDNQRPSGVPDRFSGSIDSSSNSASLTISGLRTDDEADYYCQSYDSINLWVFGGGTKVTVL
B4: CE7C1R3H8_J9, scFv format (scFv)
chain: QVQLVESGGGVVQPGRSLRLSCAASGFTFSTYGMHWVRQAPGKGLEWVAVISYDGGTKYYADSVKGRFTISRDNSMKTLYLQMNSLRTEDTAVYYCAKDLGDLPPGLDYWGQGTMVTVSSQSVLTQPPSASGTPGQRVTISCSGSSSNIGSNTVNWYQQLPGAAPKLLIYTNNQRPSGVPDRFSGSKSGTSASLAISGLQSEDEADYYCAAWDDSSEPRVVFGGGTKVTVL
B5: CB21R3P1_F1, scFv format (scFv)
chain: QVQLVESGGGVVRPGRSLRLSCAASGFTFSSYGMHWVRQAPGKGLEWVAVISYDGSIKYYADSVKGRFTISRDNSKNTLYLQMNSLRAEDTAIYYCARVMGTDPHSYYYMDVWGKGTLVTVSSSSELTQDPAVSVALGQTVRITCQGDSLRSYYASWYQRKPGQAPVLVIYGKNNRPSGIPDRFSGSSSGNTASLTITGAQAEDEADYYCNSRDSSGNHVLFGGGTKLTVL
B6: CC21R3P1_C1a, scFv format (scFv)
chain: QVQLVESGGGVVQPGRSLRLSCAASGFTFSSYGMHWVRQAPGKGLEWVAVISYDGSNKYYADSVKGRFTISRDNSKNTLYLQMNSLRAEDTAVYYCAKDEFDAFDIWGRGTMVTVSSSYVLTQPPSVSVAPGTTARITCGGNNIGSRSVHWYQQKPGQAPLLVIYYDSDRPSGIPLRFSGSNSGNTATLTISRVEAGDEADYYCQVWDTSSGHYVFGTGTKVTVL
B7: CC21R3P3_C1, scFv format (scFv)
chain: QVQLVESGGGVVQPGRSLRLSCAASGFTFSSYGMHWVRQAPGKGLEWVAVISYDGSIKYYADSVKGRFTISRDNSRNTLYLQMNSLRPEDTAVYYCAKDWGFSGSLTFDYWGQGTMVTVSSSYVLTQPPSVSVAPGKTARITCGGNNIGSKSVHWYQQKPGQAPVLVIYYDSDRPSGIPERFSGSNSGNTATLTISRVEAGDEADYYCQVWDSSSDHVVFGGGTKVTVL
B8: CB21R3P3_E5, scFv format (scFv)
chain: QVQLVESGGGVVQPGRSLRLSCAASGFTFSSYGMHWVRQAPGKGLEWVAVISYDGSIKYYADSVKGRFTISRDNSKNTLYLQMNSLRAEDAAVYYCARAPDGHQLDYWGRGTLVTVSSNFMLTQPHSVSESPGKTVTISCTGSSGSIASNYVQWYQQRPGSAPTTVIYEDDQRPSDVPDRFSGSIDSSSNSASLTISGLRTEDEADYYCQSYVSSKWVFGGGTKLTVL
B9: CC21R3P1_B9, scFv format (scFv)
chain: EVQLVQSGGGVVQPGRSLRLSCAASGFTFSSYGMHWVRQAPGKGLEWVAVISYDGSNKYYADSVKGRFTISRDNSKNTLYLQMNSLRAEDTAVYYCAKDGGWYDWYFDLWGRGTLVTVSSSSELTQDPDVSVALGQTVRITCQGDSLTSYYASWYQQKPGQAPVLVISGNDNRPSGIPDRFSGSNSGNTASLTITGAQAEDAADYYCGSRDSSGYQVVFGAGTKLTVL
B10: CC21R3P1_H6, scFv format (scFv)
chain: QVQLVESGGGVAQSGKSLRLSCAASGFTFSNYGMHWVRQAPGKGLEWLAVISYDGSNRYYADSVKGRFTISRDNSNNTLNLQMSSLRAEDTALYYCAKDAGGPLDYWGKGTLVTVSSQSVLTQLTQPPSVSLAPGQTATITCGGDNIGRKSVHWYQQKPGQAPVLVVYDDTDRPSGIPERFSGSNSGNTATLTISRVEAGDEADYYCQVWDSSIDHSWVFGGGTKLTVL
B11: CB2R2P4_C3, scFv format (scFv)
chain: QVTLRESGPALVKPTQTLTLTCTFSGFSLTTSGMSVIWIRQPPGKALEWLARIDSDDEKHYNTSLKTRLAISKDTSKNQVVLTMTNMDPVDTGTYYCARLRAGSGPYVFDSWGQGTTVTVSSQSVLTQPPSASGTPGQRVTISCSGSSSNIGSNTVNWYQRLPGAAPQLLIYNNDQRPSGIPDRFSGSKSGTSGSLVISGLQSEDEADYYCASWDDSLNGRVFGGGTKLTVL
B12: CB1R3P4_D3, scFv format (scFv)
chain: QVQLVQFGGGVVQPGRSLRLSCAASGFTFSSYGMHWVRQAPGKGLEWVAVISYDGSIKYYADSVKGRFTISRENAKNSVYLQMDSLRVGDTAVYYCTRAGYSTDWHPDYWGQGTMVTVSSSSELTQDPAVSVALGQTVRITCQGDSLRSYYASWYQQKPGQAPVLAIYGKNNRPSGIPDRFSGSSSGNTASLTITGAQAEDEADYYCNSRDSSGNHVVFGGGTKLTVL
B13: CF1N1R3P4_C7, scFv format (scFv)
chain: QVQLVESGGGVVQPGRSLRLSCAASGFTFSNSGIHWVRQAPGKGLEWVAVISYDGSNKFYADSVKGRFTISRDNSKNTLYLQMNSLRAEDTAVYYCAKLRDNAEYTDYWGQGTLVTVSSNFMLTQPHSVSESPGKTVTISCTGSGGSIDRNYVQWYQQRPGSSPTTVIYEDNQRPSGVPDRFSGSIDSSSNSASLTISGLKTEDEADYYCQSYDPLPVWVFGGGTKLTVL
B14: CF1H1R3P3_G11, scFv format (scFv)
chain: B13 chain with A103G, T106L
B15: CF1H1R3P4_B5, scFv format (scFv)
chain: B13 chain with A103G, T106L, D214V, P215E, L216T, V218E
B16: CB21R3P6_G7, scFv format (scFv)
chain: QVQLVQSGAEVKKPGSSVTVSCKASGGTFSSFSITWLRQAPGQGLEWMGEITPMFGIANYAQKFQGRVTISADESTSTAYMELSGLTSEDTAMYYCARDGRFDVSDLLTDKPKVTINYNGMDVWGQGTLVTVSSQSVLTQPPSASGTPGQRVTISCSGSSSNIGSNTVNWYQRLPGAAPQLLIYNNDQRPSGIPDRFSGSKSGTSGSLVISGLQSEDEADYYCASWDDSLNGRVFGGGTKLTVL
B17: CC21R3P1_E7, scFv format (scFv)
chain: QLVESGGGVVQPGRSLRLSCAASGFTFSTYGMHWVRQAPGKGLEWVAVISYDGGTKYYADSVKGRFTISRDNSMKTLYLQMNSLRTEDTAVYYCAKDLGDLPPGLDYWGQGTMVTVSSQSVLTQPPSASGTPGQRVTISCSGSSSNIGSNTVNWYQQLPGAAPKLLIYTNNQRPSGVPDRFSGSKSGTSASLAISGLQSEDEADYYCAAWDDSLNGNVVFGGGTKVTVL
B18: CF1A11R3P3_F3, scFv format (scFv, V domains shown, not shown: small tags and cut ends)
VH: QVQLVESGGGVVQPGRSLRLSCAASGFTFSNSGIHWVRQAPGKGLEWVAVISYDGSNKFYADSVKGRFTISRDNSKNTLYLQMNSLRAEDTAVYYCAKLRDNGEYLDYWGQGTLVTVSS
VL: NFMLTQPHSVSESPGKTVTISCTGSGGSIDRNYVQWYQQRPGSAPITVIYEDNQRPSGVPDRFSGSIDSSSNSASLTISGLRTDDEADYYCQSYDSINLWVFGGGTKVTVL
B19: CC21R3P4_F4, scFv format (scFv)
chain: QVQLVESGGGVAHSGKSLRLSCAASGFTFSNYGMHWVRQAPGKGLEWLAVISYDGSNRYYADSVKGRFTISRDNSNNTLNLQMSSLRAEDTALYYCAKDAGGPLDYWGRGTLVTVSSSYVLTQPPSVSVAPGQMARITCGGNNIGDKSVQWYQQRPGQAPLLVVYDDSDRPSGIPERFSGSYSRNTATLTISRVEAGDEADYYCQVWDSSSDHPEVVFGGGTKLTVL

target: T1, recombinant human IP-10 (hIP-10); assay: cell-based or functional assay

Calcium flux IC50 (nM); 10 nM rhIP-10 [nM] | Chemotaxis IC50 (nM); 1 nM rhIP-10 [nM] | Binder
> 200 | 75 | B1
 | 122 | B2

target: T1, recombinant human IP-10 (hIP-10); assay: cell-based or functional assay; remark: another data set of the same source

Calcium flux IC50 (nM); 10 nM hIP-10; hCXCR3 L1.2 cells [nM] | Chemotaxis IC50 (nM); 2 nM hIP-10; hCXCR3 L1.2 cells [nM] | Chemotaxis IC50 (nM); 1 nM hIP-10; hCXCR3 L1.2 cells [nM] | Chemotaxis IC50 (nM); 0.2 nM hIP-10; hCXCR3 L1.2 cells [nM] | Binder
36 | 18 |  |  | B3
 |  | 0.9 |  | B4
36 | 40 |  |  | B5
37 |  | 108 |  | B6
71 |  | 72 |  | B7
39 | 36 |  |  | B8
107 |  | 107 |  | B9
71 |  | 36 |  | B10
14 |  | 15 |  | B11
179 |  | 72 |  | B12
 |  |  | 0.12 | B13
7.8 |  |  | 0.39 | B14
2.4 |  |  | 0.51 | B15
46 |  | 10 |  | B16
250 | 71 |  |  | B17
14 |  | 1.8 |  | B18
107 |  | 36 |  | B19
